Data: patent US20240309087A1 (SHANGHAI JUNSHI BIOSCIENCES, published 2024)

T1: hCD112R mFC recombinant protein (human; murine, UniProt Q6DKI7 41-160)
T1 construct: range 41-160; expressed in 293E cells; also called hCD112R ECD mFC; hCD112R-ECD-mFC; not shown: murine IgG2a Fc domain (MX2-mFc vector)
T1 sequence (looked up): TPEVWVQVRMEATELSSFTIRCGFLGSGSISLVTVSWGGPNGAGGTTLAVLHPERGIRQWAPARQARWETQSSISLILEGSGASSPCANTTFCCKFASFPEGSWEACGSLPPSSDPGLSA

T2: human CD112R on Jurkat CD112R effector cells (human, UniProt Q6DKI7 1-326)
T2 sequence (looked up): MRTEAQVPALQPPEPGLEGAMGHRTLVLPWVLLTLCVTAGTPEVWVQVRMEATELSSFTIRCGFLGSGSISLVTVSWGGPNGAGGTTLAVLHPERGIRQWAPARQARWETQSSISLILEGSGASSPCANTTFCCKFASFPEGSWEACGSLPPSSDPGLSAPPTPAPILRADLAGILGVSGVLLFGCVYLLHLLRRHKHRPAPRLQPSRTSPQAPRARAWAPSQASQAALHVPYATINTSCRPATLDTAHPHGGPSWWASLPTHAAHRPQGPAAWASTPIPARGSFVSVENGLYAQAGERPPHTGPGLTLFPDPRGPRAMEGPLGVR

B1: 6C6.1 (antibody, V domains shown)
VH: EVQLQQSGPELVRPGASVRISCKASGYTFTDYNMNWVKQSHGKSLEWIGYIYPYNGGAGYNQNFKNKATLTVDTYSRAAYMELRSLTSEDSAVYYCARERGMQRDYFDYWGQGTILTVSS
VL: DIQMTQSPASLSVSVGETVTITCRTSENIYSNLAWYQQKQGKSPQLLVYAATNLADGVPSRFSGSGSGTQFSLKINSLQSGDFGSYFCQHFWGTPYTFGGGTKLEIK
notes: murine hybridoma antibody
B2: 8D3.1 (antibody, V domains shown)
VH: QIQLVQSGPELKKPGETVKISCKASGYTFTDYSMHWVKQAPGKGLKWVGWISTETAQPTYADDFRGRFAFSLETSASTAYLQINNLRNEDTATYFCATGNYGWYFSVWGAGTTVTVSS
VL: ENVLTQSPAIMSASPGEKVTMTCRATSGVSSSYLFWYQQKSGASPKIWIYSTSNLASGVPTRFSGSGSGTSYSLTISSVEAEDAATYYCQQYSGYPYTFGGGTKLEIK
notes: murine hybridoma antibody
B3: 1D11.1 (antibody, V domains shown)
VH: EVQLQQSGPELVKPGASVKISCKASGYPFINYNIHWLRQSRGKSLEWIGYVYPYNGVPGYNQKFKSKATLTADNSFSTAYMEFRSLTSEDSAVYFCARERGRDYFDSWGQGTSLTVSS
VL: DIQLTQSPASLSVSVGETVTITCRVSANIYSNLVWYHQRQGKSPQLLVYGGTNLADGVPSRFSGSGSGTQFSLKINSLQSEDFGSYHCQHFWSTPYTFGGGTKLEIK
notes: murine hybridoma antibody
B4: 2G10.1 (antibody, V domains shown)
VH: QVQLQQSGAELVKPGASVKLSCKASGYTFTSHYMYWLKQRPGQGLEWIGEINPSNGDTKFNEKFKSKATLTVDKSSSTAYMQLSSLTSEDSAVYYCTREKDAFSALDYWGQGTSVTDSS
VL: DIQMIQSPSSMFASLGDRVSLSCRASQGIRGHLDWYQQKPGGTIKLLIYSTSILNFGVPSRFSGSGSGSDYSLTISSLESEDFADYYCLQRNAYPLTFGAGTKLELK
notes: murine hybridoma antibody
B5: 6D2.1 (antibody, V domains shown)
VH: EVQLQQSGPELVKPGASVKISCKASGYTFTDYNIHWVKQSHGKRPDWIGYNYPYNGGAGYNQNFRSRATLTVDKFSSTAYMELRSLTSEDSAVYYCAGEEVRRGPFYFWGQGTSVTVSS
VL: DIQMTQSPDSLSASVGETVTITCRTSENIYSFLVWYQQKQGKSPQLLVYNAKTLAEGVPSRFSGSGSGTQFSLKINSLQPEDFGTYYCQHYYGTPYTFGGGTKLEIK
notes: murine hybridoma antibody
B6: 4E5.1 (antibody, V domains shown)
VH: EVMLVESGGGLVKPGGSLKLSCAASGFTFSNYIMSWVRQTPDMRLEWVATISSGGSSTYYVDRVKGGFPFSRDSVKYILYVHTSSLRSADTAIYYCAKHEDWDPLYYYSMDYWGQGTSVTVSS
VL: QIVLTQSPTVMSASPGDKVTMTCSASSSVSYMYWFQQKPGSSPRLLIYDTSHLAFGVPSRFSGSRSGTSYSLTISRMEAEDTATYYCQQWTTYPLTFGAGTKLELK
notes: murine hybridoma antibody
B7: 6A6.1 (antibody, V domains shown)
VH: EVQLQQSGAELVRSGTSVTLSCTASGFNIRDYFIHWVKQRPEQGLEWIGWIIPASGDTDCAPIFQGKATLTADTFSNTAYLHLNSLTSEDTAVYYCNTWVWSPYAVDYWGQGTSVTVSS
VL: DVLMTQTPLSLPVSLGDQTSISCRSSQSIVHSNGNTYLHWYLQKPGQSPKLLIYKVSNRFSGVPDRFSGSGSGTDFTLKISRVEAEDLGVYYCFQGSHVPWTFGGGTRLEIK
notes: murine hybridoma antibody
B8: 5B1.1 (antibody, V domains shown)
VH: EVQLQQSGAELVRSGTSVTLSCTASGFNIRDYFIHWVKQRPEQGLEWIGWIIPASGDTDCAPIFQGKATLTADTFSNTAYLHLNSLTSEDTAVYYCNTWVWSPYAVDYWGQGTSVTVSS
VL: DIVMTQFPSSLSVPVGEKVTMNCKSSQSLLNSGNQKNFLAWYQQKPGQPPKLLIYGASTRESGVPYRFTGSGSGTDFTLTISSVQAEDLAVYYCQNDHSYPWTFGGGTKLEIK
notes: murine hybridoma antibody
B9: 7C2.1 (antibody, V domains shown)
VH: DVKLVESGGGLVKLGGSLKLSCAASGFTFSSYHMSWIRQTPEKRLELVAAINSNGINTYYLDTVKGRFTISRDNAKNTLYLQMSSLKSEDTALYYCARHEDYYGFAMDYWGQGTSVTVSS
VL: SIVMTQTPKFLLVSAGDRVTITCKASQSVSNDVAWYQQKPGQSPKLLMYYVSNRFTGVPDRFTGSGYGTDFTFTINTVQAEDLAVYFCQQAYRSPWTFGGGTKLEIK
B10: 3D2.1 (antibody, V domains shown)
VH: DVQLVESGGGLVKLGGSLKLSCVASGFTFSSYHMSWIRQTPEKRLELVAAINSNDINTYYLDTVKGRFTISRDIAKNTLHLQMSSLKSEDTALYYCARHEDYYGFAMDYWGQGTSVTVSS
VL: DIQLTQSPASLSVSVGETVTITCRVSANIYSNLVWYHQRQGKSPQLLVYGGTNLADGVPSRFSGSGSGTQFSLKINSLQSEDFGSYHCQHFWSTPYTFGGGTKLEIK
B11: 5C10.1 (antibody, V domains shown)
VH: DVKLVESGGGLVKLGGSLKLSCAASGFTFSSYHMSWVRQTPEKRLELVAAISRDGDSTYYPDTVKGRFTISRDDAENTLYLQMSSLKSEDTALYYCSRHEDYFGFAMDSWGQGTSVTVSS
VL: SIVMTQTPKFLLVSAGDRVTITCKASQSVTNDVAWYQQKPGQSPKLLMYYVSNHYTGVPDRFIGSGYGTDFTFTISTVQAEDLAVYFCQQAYRSPWTFGGGTKLEIK
B12: 6A10.1 (antibody, V domains shown)
VH: DVKLVESGGGLVKLGGSLKLSCAASGFTFSSYHMSWVRQTPEKRLELVAAINSNVISTYYLDTVKGRFTISRDNAKNTLYLQMSSLKSEDTALYYCARHEDYYGFAMDYWGQGTSVTVSS
VL: SIVMTQTPKFLLVSAGDRVTITCKASQSVSNDVAWYQEKPGQSPKLLMYYVSHRFTGVPDRFTGSGYGTDFTFTINTVQAEDLAVYFCHQAYRSPWTFGGGTKLEIK

Columns and labels:
[1] = target: T1, hCD112R mFC recombinant protein; assay: Biacore T200, antibody captured, hCD112R mFc injected
Protocol: Biacore T200 was used to assay the binding affinity of the anti-CD112R hybridoma antibodies for the recombinant hCD112R mFc protein. […] antibody fragments (Jackson ImmunoResearch) were coupled to the surface of a CM5 chip, and the anti-CD112R hybridoma antibodies were each captured by using the chip, after which recombinant hCD112R mFc proteins at different concentrations were injected into the CM5 chip.

[2] = target: T1, hCD112R mFC recombinant protein; assay: FACS competition, hCD112R mFc on CHO CD112 cells
Protocol: Unbound antibodies were then washed with a staining buffer and the cells were incubated with 1% (v/v) goat anti-mouse IgG Fc fluorescent secondary antibodies (Jackson ImmunoResearch) prepared in a staining buffer at 4° C. for 30 min in the dark. Finally, the cells were collected by using a flow cytometer, and the fluorescent antibodies bound to the cell surface were detected. Raw data were analyzed by using FlowJo to obtain MFI values, and a four-parameter curve fitting was performed by using GraphPad Prism software to obtain IC₅₀ values.

[3] = target: T2, human CD112R on Jurkat CD112R effector …; assay: cell-based or functional assay

Binder	Kd [1] [nM]	IC50 [2] [µg/mL]	EC50, CD112R/CD112 NFAT-luciferase reporter [3] [ng/mL]
B1	0.0205	0.0229	–
B2	0.0158	0.148	–
B3	0.0236	0.207	–
B4	0.0302	0.261	72.9
B5	0.0134	0.272	–
B6	0.00926	0.111	55.2
B7	0.0174	0.145	–
B8	0.0163	0.147	–
B9	–	–	37.9
B10	–	–	49.3
B11	–	–	40.4
B12	–	–	50.7
